Drawing on paper PMC3566092, this text covers in vitro phosphatase assay: free phosphate released from the p38 (pT180) phosphopeptide by His-WIP1 with GST-Tax, against His-WIP1 alone and in vitro phosphatase assay: free phosphate released from the H2AX (pS139) phosphopeptide by His-WIP1 (20 ng) with GST-Tax (100 ng), against His-WIP1 alone or with GST for one substance.

The target of test [1] is Recombinant His-tagged WIP1ΔEx6 (UniProt O15297).
Test [2] has the same target. This is another data set of the same source.

GST-Tax, sequence (P03409 whole entry): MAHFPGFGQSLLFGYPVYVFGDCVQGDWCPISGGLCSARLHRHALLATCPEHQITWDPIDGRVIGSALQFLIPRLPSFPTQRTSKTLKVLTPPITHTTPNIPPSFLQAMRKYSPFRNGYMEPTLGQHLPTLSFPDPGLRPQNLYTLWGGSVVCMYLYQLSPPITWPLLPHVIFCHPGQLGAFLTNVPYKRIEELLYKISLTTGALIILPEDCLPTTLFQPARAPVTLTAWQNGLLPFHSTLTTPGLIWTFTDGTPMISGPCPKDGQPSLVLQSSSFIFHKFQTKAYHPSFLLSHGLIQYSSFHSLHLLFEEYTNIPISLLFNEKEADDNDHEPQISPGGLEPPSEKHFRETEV

Consider “GST-Tax (from UniProt P03409 1-353) (natural protein)”, for which the in vitro phosphatase assay: free phosphate released from the p38 (pT180) phosphopeptide by His-WIP1 with GST-Tax, against His-WIP1 alone in test [1] stood at 2 fold. In addition, the in vitro phosphatase assay: free phosphate released from the H2AX (pS139) phosphopeptide by His-WIP1 (20 ng) with GST-Tax (100 ng), against His-WIP1 alone or with GST in test [2] came out at 2 fold.
